The results in this text go back to US20100260668A1 (published 2010).

The EC50 is the midpoint of the concentration-response curve. A higher EC50 goes with a less potent agent.

The target of test [1] is T1, DLL4 (DLL4 ECD/His tag, R&D Systems 1506-D4-050) (UniProt Q9NR61 27-529).
T1 construct: extracellular domain; not shown: His tag
Briefly: Direct bind ELISA on DLL4; DLL4 domain C-term., HC long, LC long. (In general: An ELISA detects its analyte on a solid surface through an enzyme-linked reagent.)

In test [2] the target is T1, DLL4 (DLL4 ECD/His tag, R&D Systems …). The test is described as follows: Direct bind ELISA on DLL4; DLL4 domain N-term., HC long, LC long.
Test [3] shares this target. The test is described as follows: Direct bind ELISA on DLL4; DLL4 domain N-term., HC long, LC short.
For test [4] the target is unchanged. The test is described as follows: Direct bind ELISA on DLL4; DLL4 domain C-term., HC short, LC short.

B1: DVD472 (VEGF/DLL4 DVD-Ig) (bispecific antibody, human IgG1)
VH: EVQLVESGGGLVQPGGSLRLSCAASGFTISDYWIHWVRQAPGKGLEWVAGITPAGGYTYYADSVKGRFTISADTSKNTAYLQMNSLRAEDTAVYYCARFVFFLPYAMDYWGQGTLVTVSSASTKGPSVFPLAPEVQLVESGGGLVQPGGSLRLSCAASGFTFTDNWISWVRQAPGKGLEWVGYISPNSGFTYYADSVKGRFTISADTSKNTAYLQMNSLRAEDTAVYYCARDNFGGYFDYWGQGTLVTVSS
VL: DIQMTQSPSSLSASVGDRVTITCRASQDVSTAVAWYQQKPGKAPKLLIYSASFLYSGVPSRFSGSGSGTDFTLTISSLQPEDFATYYCQQSYTTPPTFGQGTKVEIKRTVAAPSVFIFPPDIQMTQSPSSLSASVGDRVTITCRASQDVSTAVAWYQQKPGKAPKLLIYSASFLYSGVPSRFSGSGSGTDFTLTISSLQPEDFATTYYCQQSYTGTVTFGQGTKVEIKR
notes: HC linker long, LC linker long; also called DVD472H; DVD472L
In test [1], B1 showed an EC50 of 2.78 nM.

B2: DVD449 (DLL4/VEGF DVD-Ig) (bispecific antibody, human IgG1)
VH: QVQLVQSGAEVKKPGASVKISCKASGYSFTAYYIHWVKQAPGQGLEWIGYISSYNGATNYNQKFKGRVTFTTDTSTSTAYMELRSLRSDDTAVYYCARDYDYDVGMDYWGQGTLVTVSSASTKGPSVFPLAPEVQLVESGGGLVQPGGSLRLSCAASGFTISDYWIHWVRQAPGKGLEWVAGITPAGGYTYYADSVKGRFTISADTSKNTAYLQMNSLRAEDTAVYYCARFVFFLPYAMDYWGQGTLVTVSS
VL: DIVMTQSPDSLAVSLGERATISCRASESVDNYGISFMKWFQQKPGQPPKLLIYAASNQGSGVPDRFSGSGSGTDFTLTISSLQAEDVAVYYCQQSKEVPWTFGGGTKVEIKRTVAAPSVFIFPPDIQMTQSPSSLSASVGDRVTITCRASQDVSTAVAWYQQKPGKAPKLLIYSASFLYSGVPSRFSGSGSGTDFTLTISSLQPEDFATYYCQQSYTTPPTFGQGTKVEIKR
notes: HC linker long, LC linker long; also called DVD449H; DVD449L
In the case of B2, it took 0.36 nM to reach a half-maximal effect in test [2] (EC50).

B3: DVD471 (DLL4/VEGF DVD-Ig) (bispecific antibody, human IgG1)
VH: EVQLVESGGGLVQPGGSLRLSCAASGFTFTDNWISWVRQAPGKGLEWVGYISPNSGFTYYADSVKGRFTISADTSKNTAYLQMNSLRAEDTAVYYCARDNFGGYFDYWGQGTLVTVSSASTKGPSVFPLAPEVQLVESGGGLVQPGGSLRLSCAASGFTISDYWIHWVRQAPGKGLEWVAGITPAGGYTYYADSVKGRFTISADTSKNTAYLQMNSLRAEDTAVYYCARFVFFLPYAMDYWGQGTLVTVSS
VL: DIQMTQSPSSLSASVGDRVTITCRASQDVSTAVAWYQQKPGKAPKLLIYSASFLYSGVPSRFSGSGSGTDFTLTISSLQPEDFATTYYCQQSYTGTVTFGQGTKVEIKRTVAAPSVFIFPPDIQMTQSPSSLSASVGDRVTITCRASQDVSTAVAWYQQKPGKAPKLLIYSASFLYSGVPSRFSGSGSGTDFTLTISSLQPEDFATYYCQQSYTTPPTFGQGTKVEIKR
notes: HC linker long, LC linker long; also called DVD471H; DVD471L
In test [2], B3 registered an EC50 of 0.89 nM.

B4: DVD477 (DLL4/VEGF DVD-Ig) (bispecific antibody, human IgG1)
VH: EVQLVESGGGLVQPGGSLRLSCAASGFTFTDNWISWVRQAPGKGLEWVGYISPNSGFTYYADSVKGRFTISADTSKNTAYLQMNSLRAEDTAVYYCARDNFGGYFDYWGQGTLVTVSSASTKGPSVFPLAPEVQLVESGGGLVQPGGSLRLSCAASGFTISDYWIHWVRQAPGKGLEWVAGITPAGGYTYYADSVKGRFTISADTSKNTAYLQMNSLRAEDTAVYYCARFVFFLPYAMDYWGQGTLVTVSS
VL: DIQMTQSPSSLSASVGDRVTITCRASQDVSTAVAWYQQKPGKAPKLLIYSASFLYSGVPSRFSGSGSGTDFTLTISSLQPEDFATTYYCQQSYTGTVTFGQGTKVEIKRTVAAPDIQMTQSPSSLSASVGDRVTITCRASQDVSTAVAWYQQKPGKAPKLLIYSASFLYSGVPSRFSGSGSGTDFTLTISSLQPEDFATYYCQQSYTTPPTFGQGTKVEIKR
notes: HC linker long, LC linker short; also called DVD477H; DVD477L
As for B4, the response in test [3] was half-maximal at 0.69 nM (EC50).

B5: DVD490 (VEGF/DLL4 DVD-Ig) (bispecific antibody, human IgG1)
VH: EVQLVESGGGLVQPGGSLRLSCAASGFTISDYWIHWVRQAPGKGLEWVAGITPAGGYTYYADSVKGRFTISADTSKNTAYLQMNSLRAEDTAVYYCARFVFFLPYAMDYWGQGTLVTVSSASTKGPEVQLQQSGPELVKPGASVKMSCKASGYTFTSYVINWVKQKPGQGLEWIGLINPYNDGTKYNEKFKVKATLTSDKSSSTAYMELSSLTSEDSAVYYCASYYYGSRYYFDYWGQGTTLTVSS
VL: DIQMTQSPSSLSASVGDRVTITCRASQDVSTAVAWYQQKPGKAPKLLIYSASFLYSGVPSRFSGSGSGTDFTLTISSLQPEDFATYYCQQSYTTPPTFGQGTKVEIKRTVAAPDIQMTQSSSYLSVSLGGRVTITCKASDHINNWLAWYQQKPGNAPRLLISGATSLETGVPSRFSGSGSGKDYTLSITSLQTEDVATYYCQQYWSIPLTFGAGTKLELKR
notes: HC linker short, LC linker short; also called DVD490H; DVD490L
Take B5: it took 9.27 nM to reach a half-maximal effect in test [4] (EC50).

B6: DVD495 (DLL4/VEGF DVD-Ig) (bispecific antibody, human IgG1)
VH: EVQLQQSGPELVKPGASVKMSCKASGYTFTSYVINWVKQKPGQGLEWIGLINPYNDGTKYNEKFKVKATLTSDKSSSTAYMELSSLTSEDSAVYYCASYYYGSRYYFDYWGQGTTLTVSSASTKGPSVFPLAPEVQLVESGGGLVQPGGSLRLSCAASGFTISDYWIHWVRQAPGKGLEWVAGITPAGGYTYYADSVKGRFTISADTSKNTAYLQMNSLRAEDTAVYYCARFVFFLPYAMDYWGQGTLVTVSS
VL: DIQMTQSSSYLSVSLGGRVTITCKASDHINNWLAWYQQKPGNAPRLLISGATSLETGVPSRFSGSGSGKDYTLSITSLQTEDVATYYCQQYWSIPLTFGAGTKLELKRTVAAPSVFIFPPDIQMTQSPSSLSASVGDRVTITCRASQDVSTAVAWYQQKPGKAPKLLIYSASFLYSGVPSRFSGSGSGTDFTLTISSLQPEDFATYYCQQSYTTPPTFGQGTKVEIKR
notes: HC linker long, LC linker long; also called DVD495H; DVD495L
In test [2], B6 came in with a 50% effective concentration (EC50) of 0.33 nM.

B7: DVD520 (VEGF/DLL4 DVD-Ig) (bispecific antibody, human IgG1)
VH: EVQLVESGGGLVQPGGSLRLSCAASGFTISDYWIHWVRQAPGKGLEWVAGITPAGGYTYYADSVKGRFTISADTSKNTAYLQMNSLRAEDTAVYYCARFVFFLPYAMDYWGQGTLVTVSSASTKGPSVFPLAPEVQLQQSGPELEKPGASVKISCKASGYSFTGYNMNWVKQSNGKSLEWIGNIDPYFGGTNYNQKFKGKATLTVDKSSSTAYMQLKSLTSEDSAVYYCARNYDYDGGCFDYWGQGTTLTVSS
VL: DIQMTQSPSSLSASVGDRVTITCRASQDVSTAVAWYQQKPGKAPKLLIYSASFLYSGVPSRFSGSGSGTDFTLTISSLQPEDFATYYCQQSYTTPPTFGQGTKVEIKRTVAAPSVFIFPPQAVVTQESALTTSPGETVTLTCRSSTGAVTTSNYANWVQEKPDHLFTGLIGGTNNRAPGVPARFSGSLIGDKAALTITGAQTEDEAIYFCALWYSNHWVFGGGTKLTVLG
notes: HC linker long, LC linker long; also called DVD520H; DVD520L
Turning to B7, in test [1], a half-maximal effect (EC50) was put at 17.3 nM.

B8: DVD496 (VEGF/DLL4 DVD-Ig) (bispecific antibody, human IgG1)
VH: EVQLVESGGGLVQPGGSLRLSCAASGFTISDYWIHWVRQAPGKGLEWVAGITPAGGYTYYADSVKGRFTISADTSKNTAYLQMNSLRAEDTAVYYCARFVFFLPYAMDYWGQGTLVTVSSASTKGPSVFPLAPEVQLQQSGPELVKPGASVKMSCKASGYTFTSYVINWVKQKPGQGLEWIGLINPYNDGTKYNEKFKVKATLTSDKSSSTAYMELSSLTSEDSAVYYCASYYYGSRYYFDYWGQGTTLTVSS
VL: DIQMTQSPSSLSASVGDRVTITCRASQDVSTAVAWYQQKPGKAPKLLIYSASFLYSGVPSRFSGSGSGTDFTLTISSLQPEDFATYYCQQSYTTPPTFGQGTKVEIKRTVAAPSVFIFPPDIQMTQSSSYLSVSLGGRVTITCKASDHINNWLAWYQQKPGNAPRLLISGATSLETGVPSRFSGSGSGKDYTLSITSLQTEDVATYYCQQYWSIPLTFGAGTKLELKR
notes: HC linker long, LC linker long; also called DVD496H; DVD496L
B8: the response in test [1] was half-maximal at 5.59 nM (EC50).

B9: DVD514 (VEGF/DLL4 DVD-Ig) (bispecific antibody, human IgG1)
VH: EVQLVESGGGLVQPGGSLRLSCAASGFTISDYWIHWVRQAPGKGLEWVAGITPAGGYTYYADSVKGRFTISADTSKNTAYLQMNSLRAEDTAVYYCARFVFFLPYAMDYWGQGTLVTVSSASTKGPEVQLQQSGPELEKPGASVKISCKASGYSFTGYNMNWVKQSNGKSLEWIGNIDPYFGGTNYNQKFKGKATLTVDKSSSTAYMQLKSLTSEDSAVYYCARNYDYDGGCFDYWGQGTTLTVSS
VL: DIQMTQSPSSLSASVGDRVTITCRASQDVSTAVAWYQQKPGKAPKLLIYSASFLYSGVPSRFSGSGSGTDFTLTISSLQPEDFATYYCQQSYTTPPTFGQGTKVEIKRTVAAPQAVVTQESALTTSPGETVTLTCRSSTGAVTTSNYANWVQEKPDHLFTGLIGGTNNRAPGVPARFSGSLIGDKAALTITGAQTEDEAIYFCALWYSNHWVFGGGTKLTVLG
notes: HC linker short, LC linker short; also called DVD514H; DVD514L
Consider B9, for which it took 21.1 nM to reach a half-maximal effect in test [4] (EC50).

B10: DVD450 (VEGF/DLL4 DVD-Ig) (bispecific antibody, human IgG1)
VH: EVQLVESGGGLVQPGGSLRLSCAASGFTISDYWIHWVRQAPGKGLEWVAGITPAGGYTYYADSVKGRFTISADTSKNTAYLQMNSLRAEDTAVYYCARFVFFLPYAMDYWGQGTLVTVSSASTKGPSVFPLAPQVQLVQSGAEVKKPGASVKISCKASGYSFTAYYIHWVKQAPGQGLEWIGYISSYNGATNYNQKFKGRVTFTTDTSTSTAYMELRSLRSDDTAVYYCARDYDYDVGMDYWGQGTLVTVSS
VL: DIQMTQSPSSLSASVGDRVTITCRASQDVSTAVAWYQQKPGKAPKLLIYSASFLYSGVPSRFSGSGSGTDFTLTISSLQPEDFATYYCQQSYTTPPTFGQGTKVEIKRTVAAPSVFIFPPDIVMTQSPDSLAVSLGERATISCRASESVDNYGISFMKWFQQKPGQPPKLLIYAASNQGSGVPDRFSGSGSGTDFTLTISSLQAEDVAVYYCQQSKEVPWTFGGGTKVEIKR
notes: HC linker long, LC linker long; also called DVD450H; DVD450L
Molecule B10 had an EC50 in test [1] of 1.99 nM.

B11: DVD519 (DLL4/VEGF DVD-Ig) (bispecific antibody, human IgG1)
VH: EVQLQQSGPELEKPGASVKISCKASGYSFTGYNMNWVKQSNGKSLEWIGNIDPYFGGTNYNQKFKGKATLTVDKSSSTAYMQLKSLTSEDSAVYYCARNYDYDGGCFDYWGQGTTLTVSSASTKGPSVFPLAPEVQLVESGGGLVQPGGSLRLSCAASGFTISDYWIHWVRQAPGKGLEWVAGITPAGGYTYYADSVKGRFTISADTSKNTAYLQMNSLRAEDTAVYYCARFVFFLPYAMDYWGQGTLVTVSS
VL: QAVVTQESALTTSPGETVTLTCRSSTGAVTTSNYANWVQEKPDHLFTGLIGGTNNRAPGVPARFSGSLIGDKAALTITGAQTEDEAIYFCALWYSNHWVFGGGTKLTVLGQPKAAPSVTLFPPDIQMTQSPSSLSASVGDRVTITCRASQDVSTAVAWYQQKPGKAPKLLIYSASFLYSGVPSRFSGSGSGTDFTLTISSLQPEDFATYYCQQSYTTPPTFGQGTKVEIKR
notes: HC linker long, LC linker long; also called DVD519H; DVD519L
Regarding B11, it took 1.53 nM to reach a half-maximal effect in test [2] (EC50).
